Data published in publication PMC11071473 (bioRxiv, 2024).
“And” between values parts separate entries of the source, which are not always exact repeats. Equal entries are not always repeated.

Biological target: the molecule itself
Experiment: cryo-EM structure

B1: human polymerase theta helicase domain (PolθH, residues 2–894) (domain or fragment, UniProt O75417 2-894, looked up)
chain: NLLRRSGKRRRSESGSDSFSGSGGDSSASPQFLSGSVLSPPPGLGRCLKAAAAGECKPTVPDYERDKLLLANWGLPKAVLEKYHSFGVKKMFEWQAECLLLGQVLEGKNLVYSAPTSAGKTLVAELLILKRVLEMRKKALFILPFVSVAKEKKYYLQSLFQEVGIKVDGYMGSTSPSRHFSSLDIAVCTIERANGLINRLIEENKMDLLGMVVVDELHMLGDSHRGYLLELLLTKICYITRKSASCQADLASSLSNAVQIVGMSATLPNLELVASWLNAELYHTDFRPVPLLESVKVGNSIYDSSMKLVREFEPMLQVKGDEDHVVSLCYETICDNHSVLLFCPSKKWCEKLADIIAREFYNLHHQAEGLVKPSECPPVILEQKELLEVMDQLRRLPSGLDSVLQKTVPWGVAFHHAGLTFEERDIIEGAFRQGLIRVLAATSTLSSGVNLPARRVIIRTPIFGGRPLDILTYKQMVGRAGRKGVDTVGESILICKNSEKSKGIALLQGSLKPVRSCLQRREGEEVTGSMIRAILEIIVGGVASTSQDMHTYAACTFLAASMKEGKQGIQRNQESVQLGAIEACVMWLLENEFIQSTEASDGTEGKVYHPTHLGSATLSSSLSPADTLDIFADLQRAMKGFVLENDLHILYLVTPMFEDWTTIDWYRFFCLWEKLPTSMKRVAELVGVEEGFLARCVKGKVVARTERQHRQMAIHKRFFTSLVLLDLISEVPLREINQKYGCNRGQIQSLQQSAAVYAGMITVFSNRLGWHNMELLLSQFQKRLTFGIQRELCDLVRVSLLNAQRARVLYASGFHTVADLARANIVEVEVILKNAVPFKSARKAVDEEEEAVEERRNMRTIWVTGRKGLTEREAAALIVEEARMILQQDLVEM
Question: How did the “stoichiometry N” value turn out when B1 was run?
Answer: The value was 4 and 2.
